In the supplement of paper PMC6755084 one finds fraction ligated data, which are given here for 40 sequences.

In the data set the test system is F1*sub RNA substrate (template-directed ligation). The data set is described as follows: fraction ligated after 30 min (ligated reads / total reads); higher = more ligase activity; sequences stand for … in GAGACCGCAACTGAAAAGTTGT…AGTTCTGCACGTAGAAGCAAAAGGC
As to conditions: 42 °C. A digest of the protocol:
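Ligase ribozyme variants were made from oligo-pool templates by PCR amplification, T7 transcription and gel purification. After gel separation, ligated and unligated bands were reverse transcribed with barcoded primers and sequenced on a MiSeq, with core bases filtered at quality ≥20. The fraction ligated for each variant was the number of ligated reads divided by total reads.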
Consider TTCACTGTCGTAAGACACTTTGGTGGGTTGA [3d350], for which the fraction ligated was determined as 0.0639.
Take TTCACTGTCGTAAGACATTTGGATGGGTTGA [3d347]: the fraction ligated was 0.755.
With TTCACTGTCGTAAGACCTTTGGATGGGTTGA [3d346] the figure was 0.795.
With TTCACTGTCGTAAGCACTTTGGATGGGTTGA [3d344] the figure was 0.8; with TTCACTGTCGTAGACACTTTGGATGGGTTGA [3d342], 0.775.
In the case of TTCACTGTCTAAGACACTTTGGATGGGTTGA [3d340] it was 0.774.
In turn, TTCACTGTGTAAGACACTTTGGATGGGTTGA [3d339] yielded a fraction ligated of 0.766.
In the case of TTCACTTCGTAAGACACTTTGGATGGGTTGA [3d337] it was 0.344; in that of TTCACTTGCGAAGACACTTTGGATGGGTTGA [3d373], 0.702; in that of TTCACTTGCGTAAACACTTTGGATGGGTTGA [3d375], 0.356.
With TTCACTTGCGTAAGAACTTTGGATGGGTTGA [3d377] the figure was 0.52; with TTCACTTGCGTAAGACACTTGGATGGGTTGA [3d380], 0.182; with TTCACTTGCGTAAGACACTTTGATGGGTTGA [3d381], 0.055.
Turning to TTCACTTGCGTAAGACACTTTGGAGGGTTGA [3d383], the fraction ligated stood at 0.0421.
With TTCACTTGCGTAAGACACTTTGGATGGGTTA [3d385] the figure was 0.0657; with TTCACTTGCGTAAGACACTTTGGATGGGTTG [3d386], 0.571.
Take TTCACTTGCGTAAGACACTTTGGATGGGTTGA [2d30]: the fraction ligated was determined as 0.777.
On to TTCACTTGCGTAAGACACTTTGGATGGTTGA [3d384], for which the fraction ligated worked out at 0.17.
As to TTCACTTGCGTAAGACACTTTGGTGGGTTGA [3d382], the fraction ligated is 0.00525.
In the case of TTCACTTGCGTAAGACATTTGGATGGGTTGA [3d379] it was 0.768.
Sequence TTCACTTGCGTAAGACCTTTGGATGGGTTGA [3d378] returned a fraction ligated of 0.311.
Sequence TTCACTTGCGTAAGCACTTTGGATGGGTTGA [3d376] had a fraction ligated of 0.804.
Turning to TTCACTTGCGTAGACACTTTGGATGGGTTGA [3d374], the fraction ligated is 0.736.
Consider TTCACTTGCTAAGACACTTTGGATGGGTTGA [3d372], for which the fraction ligated is 0.729.
With TTCACTTGGTAAGACACTTTGGATGGGTTGA [3d371] the figure was 0.708.
Consider TTCACTTGTCAAGACACTTTGGATGGGTTGA [3d402], for which the fraction ligated was found to be 0.719.
TTCACTTGTCGAAACACTTTGGATGGGTTGA [3d417]: the fraction ligated came out at 0.0407.
TTCACTTGTCGAAGAACTTTGGATGGGTTGA [3d419]: the fraction ligated was 0.45.
Sequence TTCACTTGTCGAAGACACTTGGATGGGTTGA [3d422] yielded a fraction ligated of 0.5.
In the case of TTCACTTGTCGAAGACACTTTGATGGGTTGA [3d423] it was 0.17; in that of TTCACTTGTCGAAGACACTTTGGAGGGTTGA [3d425], 0.157.
Regarding TTCACTTGTCGAAGACACTTTGGATGGGTTA [3d427], the fraction ligated worked out at 0.28.
In the case of TTCACTTGTCGAAGACACTTTGGATGGGTTG [3d428] it was 0.78; in that of TTCACTTGTCGAAGACACTTTGGATGGGTTGA [2d33], 0.775.
With TTCACTTGTCGAAGACACTTTGGATGGTTGA [3d426] the figure was 0.578; with TTCACTTGTCGAAGACACTTTGGTGGGTTGA [3d424], 0.0265.
With TTCACTTGTCGAAGACATTTGGATGGGTTGA [3d421] the figure was 0.79; with TTCACTTGTCGAAGACCTTTGGATGGGTTGA [3d420], 0.66; with TTCACTTGTCGAAGCACTTTGGATGGGTTGA [3d418], 0.287.
In turn, TTCACTTGTCGAGACACTTTGGATGGGTTGA [3d416] showed a fraction ligated of 0.206.
